In the supplement of paper PMC10065799, “High-throughput profiling of sequence recognition by tyrosine kinases and SH2 domains using bacterial peptide display” (eLife, 2023):
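Also: 11-residue human phosphosite peptides and single-mutation variants displayed on the E. coli surface, counted by deep sequencing, each peptide's frequency after selection divided by its frequency in the unselected input library; frequency after pTyr selection over input frequency; kinase dosed for 20-30% of maximal phosphorylation in three min.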

Each sequence was assayed against FGFR3 (UniProt P22607) (assay: phosphorylation enrichment, bacterial display (enrichment ratio); higher = better substrate or ligand; peptides without Tyr show the background).
FGFR3, sequence (P22607 whole entry, looked up): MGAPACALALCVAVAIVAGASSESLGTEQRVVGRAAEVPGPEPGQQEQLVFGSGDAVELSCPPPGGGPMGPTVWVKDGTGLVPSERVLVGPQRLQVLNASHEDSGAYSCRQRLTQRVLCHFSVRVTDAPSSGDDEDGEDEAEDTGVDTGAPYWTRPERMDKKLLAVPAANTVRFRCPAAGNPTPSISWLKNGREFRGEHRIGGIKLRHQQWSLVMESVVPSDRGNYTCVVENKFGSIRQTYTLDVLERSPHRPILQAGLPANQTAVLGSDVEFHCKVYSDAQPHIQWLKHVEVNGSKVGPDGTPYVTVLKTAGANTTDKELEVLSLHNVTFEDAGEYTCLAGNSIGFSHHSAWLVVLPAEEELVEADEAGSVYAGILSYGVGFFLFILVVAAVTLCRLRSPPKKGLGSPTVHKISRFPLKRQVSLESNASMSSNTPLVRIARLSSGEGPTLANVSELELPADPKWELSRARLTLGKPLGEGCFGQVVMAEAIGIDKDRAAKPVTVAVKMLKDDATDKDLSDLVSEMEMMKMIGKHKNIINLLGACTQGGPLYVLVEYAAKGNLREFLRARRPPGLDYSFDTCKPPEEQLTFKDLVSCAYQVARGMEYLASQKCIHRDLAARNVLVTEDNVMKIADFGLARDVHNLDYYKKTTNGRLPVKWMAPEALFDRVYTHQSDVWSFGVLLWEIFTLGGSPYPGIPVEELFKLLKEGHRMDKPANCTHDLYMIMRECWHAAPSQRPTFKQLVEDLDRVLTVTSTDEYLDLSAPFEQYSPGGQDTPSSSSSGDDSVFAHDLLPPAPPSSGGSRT
Sequence AESPEHVHMFT [FAM111A_Y511_Y511H_YF] has a phosphorylation enrichment of 0.614. GINDDHGQLKN [NBN_Y679_Y679H] was tested, and the phosphorylation enrichment was 0.591. QRNEEYCLLDS [ITK_Y198_R193Q] showed a phosphorylation enrichment of 1.37. For TPIYPYLLPKS [PLD2_Y580_T577I], the phosphorylation enrichment was 0.698. RAYRHYLLKQK [SCN2A_Y1919_R1918H] gave a phosphorylation enrichment of 0.607. For EFKKHYGFSLF [ANXA3_Y295_YF], the phosphorylation enrichment was 0.721. In the case of PLQNTYNYNVL [SLC4A1_Y553_K551N], the phosphorylation enrichment is reported as 0.545. NFCPGYNNFFN [USH2A_Y467_R464C_YF] gave a phosphorylation enrichment of 0.524. FRNSLYAPDFS [FAM92A_Y226_YF] gave a phosphorylation enrichment of 0.743. Sequence KDQGGYTMHQD [MAPT_Y29] has a phosphorylation enrichment of 0.465. KSSDVYVSYDC [SORL1_Y136_Y141C] gave a phosphorylation enrichment of 1.35. FSKDIYKRVTG [PANK2_Y405_N404I_YF] was tested, and the phosphorylation enrichment was 0.413. AEEPIYIIVPA [BMXtide_2014] was tested, and the phosphorylation enrichment was 12.1. Sequence FCGFSYDDIPD [TMEM230_Y112_R108C_YF] has a phosphorylation enrichment of 0.918. In the case of FQLPFYNMVPS [BMPR1A_Y458_YF], the phosphorylation enrichment is reported as 0.936. FETSHYLASPD [CTNND2_Y1217_P1218L_YF] showed a phosphorylation enrichment of 0.752. Sequence VKYGAYINDFK [GLB1_Y488_N484K] has a phosphorylation enrichment of 0.463. SLEKSYKLPDG [ACTA1_Y242_E243K] was tested, and the phosphorylation enrichment was 0.455. LKYAIYFEARE [LAMA2_Y1258] gave a phosphorylation enrichment of 1.64. Sequence DVELLYPVKEK [EPHX1_Y283] has a phosphorylation enrichment of 0.558. AFEQQYSPIPK [NOX1_Y373_R378K] gave a phosphorylation enrichment of 0.575. IFRAAYFGVFD [SLC25A4_Y191_YF] showed a phosphorylation enrichment of 0.717. In the case of RRNEIYEIKVD [LGR5_Y387_H383R], the phosphorylation enrichment is reported as 0.771. Sequence LSVEIHDRREY [ITGB7_Y753_Y753H] has a phosphorylation enrichment of 0.633. RNFVRYVQGLK [VWF_Y1400] was tested, and the phosphorylation enrichment was 0.445. Work on SHLSAYPALEG [CD5_Y465] yielded a phosphorylation enrichment of 0.411. LLRLAYLADIF [ZBED5_Y476] was tested, and the phosphorylation enrichment was 0.636. For SVVVPYGPPEV [TP53_Y220_E221G], the phosphorylation enrichment was 0.556. In the case of CTTIHYTYMCN [TP53_Y234_N235T], the phosphorylation enrichment is reported as 0.704.

What follows are sequences tested on Fer (mouse) in the same assay as above.
Work on AESPEHVHMFT [FAM111A_Y511_Y511H_YF] yielded a phosphorylation enrichment of 0.431. GINDDHGQLKN [NBN_Y679_Y679H] showed a phosphorylation enrichment of 0.426. Sequence QRNEEYCLLDS [ITK_Y198_R193Q] has a phosphorylation enrichment of 0.862. TPIYPYLLPKS [PLD2_Y580_T577I] gave a phosphorylation enrichment of 0.426. RAYRHYLLKQK [SCN2A_Y1919_R1918H] showed a phosphorylation enrichment of 0.332. EFKKHYGFSLF [ANXA3_Y295_YF] gave a phosphorylation enrichment of 0.561. PLQNTYNYNVL [SLC4A1_Y553_K551N] was tested, and the phosphorylation enrichment was 0.233. NFCPGYNNFFN [USH2A_Y467_R464C_YF] was tested, and the phosphorylation enrichment was 0.455. With FRNSLYAPDFS [FAM92A_Y226_YF] the phosphorylation enrichment was 0.911. KDQGGYTMHQD [MAPT_Y29] gave a phosphorylation enrichment of 0.399. Sequence KSSDVYVSYDC [SORL1_Y136_Y141C] has a phosphorylation enrichment of 0.663. In the case of FSKDIYKRVTG [PANK2_Y405_N404I_YF], the phosphorylation enrichment is reported as 0.355. With AEEPIYIIVPA [BMXtide_2014] the phosphorylation enrichment was 11.1. FCGFSYDDIPD [TMEM230_Y112_R108C_YF] was tested, and the phosphorylation enrichment was 0.76. Sequence FQLPFYNMVPS [BMPR1A_Y458_YF] has a phosphorylation enrichment of 1.45. Sequence FETSHYLASPD [CTNND2_Y1217_P1218L_YF] has a phosphorylation enrichment of 0.502. In the case of VKYGAYINDFK [GLB1_Y488_N484K], the phosphorylation enrichment is reported as 0.353. SLEKSYKLPDG [ACTA1_Y242_E243K] showed a phosphorylation enrichment of 0.429. LKYAIYFEARE [LAMA2_Y1258] showed a phosphorylation enrichment of 0.822. Sequence DVELLYPVKEK [EPHX1_Y283] has a phosphorylation enrichment of 0.432. With AFEQQYSPIPK [NOX1_Y373_R378K] the phosphorylation enrichment was 0.435. IFRAAYFGVFD [SLC25A4_Y191_YF] was tested, and the phosphorylation enrichment was 0.523. In the case of RRNEIYEIKVD [LGR5_Y387_H383R], the phosphorylation enrichment is reported as 0.757. LSVEIHDRREY [ITGB7_Y753_Y753H] showed a phosphorylation enrichment of 0.473. For RNFVRYVQGLK [VWF_Y1400], the phosphorylation enrichment was 0.309. SHLSAYPALEG [CD5_Y465] was tested, and the phosphorylation enrichment was 0.409. Work on LLRLAYLADIF [ZBED5_Y476] yielded a phosphorylation enrichment of 0.745. SVVVPYGPPEV [TP53_Y220_E221G] was tested, and the phosphorylation enrichment was 0.402. CTTIHYTYMCN [TP53_Y234_N235T] showed a phosphorylation enrichment of 0.591.

These sequences were tested against Fes (UniProt P07332) in the same assay as above.
Fes, sequence (P07332 whole entry, looked up): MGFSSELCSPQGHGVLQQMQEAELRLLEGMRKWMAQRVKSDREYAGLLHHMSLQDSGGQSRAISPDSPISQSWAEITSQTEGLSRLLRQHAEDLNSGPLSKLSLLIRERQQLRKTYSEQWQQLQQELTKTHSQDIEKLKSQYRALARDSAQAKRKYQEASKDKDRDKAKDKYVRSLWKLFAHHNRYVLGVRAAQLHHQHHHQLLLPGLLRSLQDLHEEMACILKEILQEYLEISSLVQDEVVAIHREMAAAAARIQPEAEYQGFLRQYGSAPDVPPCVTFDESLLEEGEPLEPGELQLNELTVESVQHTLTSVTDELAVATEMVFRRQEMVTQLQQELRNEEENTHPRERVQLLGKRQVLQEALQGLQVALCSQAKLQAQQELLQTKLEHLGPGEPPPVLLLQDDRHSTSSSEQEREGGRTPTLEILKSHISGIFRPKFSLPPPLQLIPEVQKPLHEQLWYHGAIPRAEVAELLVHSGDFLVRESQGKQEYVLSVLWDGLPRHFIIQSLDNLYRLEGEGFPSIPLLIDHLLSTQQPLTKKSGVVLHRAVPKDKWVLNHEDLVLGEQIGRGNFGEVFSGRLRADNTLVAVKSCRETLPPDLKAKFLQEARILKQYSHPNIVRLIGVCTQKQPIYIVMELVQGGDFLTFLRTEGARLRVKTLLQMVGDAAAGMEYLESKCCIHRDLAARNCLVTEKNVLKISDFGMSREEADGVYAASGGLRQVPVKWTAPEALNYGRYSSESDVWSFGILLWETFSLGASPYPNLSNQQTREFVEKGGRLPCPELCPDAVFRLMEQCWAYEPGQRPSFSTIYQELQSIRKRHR
AESPEHVHMFT [FAM111A_Y511_Y511H_YF] was tested, and the phosphorylation enrichment was 1.01. GINDDHGQLKN [NBN_Y679_Y679H] was tested, and the phosphorylation enrichment was 0.763. In the case of QRNEEYCLLDS [ITK_Y198_R193Q], the phosphorylation enrichment is reported as 2.35. Work on TPIYPYLLPKS [PLD2_Y580_T577I] yielded a phosphorylation enrichment of 0.776. RAYRHYLLKQK [SCN2A_Y1919_R1918H] was tested, and the phosphorylation enrichment was 0.597. With EFKKHYGFSLF [ANXA3_Y295_YF] the phosphorylation enrichment was 1.01. PLQNTYNYNVL [SLC4A1_Y553_K551N] was tested, and the phosphorylation enrichment was 0.894. Work on NFCPGYNNFFN [USH2A_Y467_R464C_YF] yielded a phosphorylation enrichment of 0.79. FRNSLYAPDFS [FAM92A_Y226_YF] was tested, and the phosphorylation enrichment was 0.899. Sequence KDQGGYTMHQD [MAPT_Y29] has a phosphorylation enrichment of 0.793. KSSDVYVSYDC [SORL1_Y136_Y141C] gave a phosphorylation enrichment of 1.13. For FSKDIYKRVTG [PANK2_Y405_N404I_YF], the phosphorylation enrichment was 0.58. AEEPIYIIVPA [BMXtide_2014] gave a phosphorylation enrichment of 2.98. In the case of FCGFSYDDIPD [TMEM230_Y112_R108C_YF], the phosphorylation enrichment is reported as 1.27. FQLPFYNMVPS [BMPR1A_Y458_YF] was tested, and the phosphorylation enrichment was 0.811. For FETSHYLASPD [CTNND2_Y1217_P1218L_YF], the phosphorylation enrichment was 0.824. For VKYGAYINDFK [GLB1_Y488_N484K], the phosphorylation enrichment was 0.791. SLEKSYKLPDG [ACTA1_Y242_E243K] gave a phosphorylation enrichment of 0.757. In the case of LKYAIYFEARE [LAMA2_Y1258], the phosphorylation enrichment is reported as 2.41. For DVELLYPVKEK [EPHX1_Y283], the phosphorylation enrichment was 1.05. Work on AFEQQYSPIPK [NOX1_Y373_R378K] yielded a phosphorylation enrichment of 0.741. In the case of IFRAAYFGVFD [SLC25A4_Y191_YF], the phosphorylation enrichment is reported as 1.25. In the case of RRNEIYEIKVD [LGR5_Y387_H383R], the phosphorylation enrichment is reported as 1.36. Sequence LSVEIHDRREY [ITGB7_Y753_Y753H] has a phosphorylation enrichment of 1.08. Work on RNFVRYVQGLK [VWF_Y1400] yielded a phosphorylation enrichment of 0.599. In the case of SHLSAYPALEG [CD5_Y465], the phosphorylation enrichment is reported as 0.591. LLRLAYLADIF [ZBED5_Y476] was tested, and the phosphorylation enrichment was 1.02. With SVVVPYGPPEV [TP53_Y220_E221G] the phosphorylation enrichment was 0.739. In the case of CTTIHYTYMCN [TP53_Y234_N235T], the phosphorylation enrichment is reported as 1.07.

These sequences were tested against Fyn (UniProt P06241) in the same assay as above.
Fyn, sequence (P06241 whole entry, looked up): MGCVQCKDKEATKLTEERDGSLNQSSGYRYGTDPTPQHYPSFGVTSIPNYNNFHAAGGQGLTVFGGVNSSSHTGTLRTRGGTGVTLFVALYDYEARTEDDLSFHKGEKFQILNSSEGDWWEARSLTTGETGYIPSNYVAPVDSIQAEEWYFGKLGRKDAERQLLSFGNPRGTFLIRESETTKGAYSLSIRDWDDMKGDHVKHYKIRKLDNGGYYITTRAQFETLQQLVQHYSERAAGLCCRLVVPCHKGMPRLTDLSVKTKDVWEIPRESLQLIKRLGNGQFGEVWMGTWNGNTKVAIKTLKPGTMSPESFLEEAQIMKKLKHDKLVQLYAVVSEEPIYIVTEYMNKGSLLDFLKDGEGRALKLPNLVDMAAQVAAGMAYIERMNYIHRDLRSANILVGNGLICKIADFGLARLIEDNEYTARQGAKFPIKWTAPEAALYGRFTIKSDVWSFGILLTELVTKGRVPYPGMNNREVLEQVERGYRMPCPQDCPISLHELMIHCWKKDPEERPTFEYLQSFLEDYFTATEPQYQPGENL
AESPEHVHMFT [FAM111A_Y511_Y511H_YF] was tested, and the phosphorylation enrichment was 0.446. GINDDHGQLKN [NBN_Y679_Y679H] was tested, and the phosphorylation enrichment was 0.537. With QRNEEYCLLDS [ITK_Y198_R193Q] the phosphorylation enrichment was 0.735. TPIYPYLLPKS [PLD2_Y580_T577I] gave a phosphorylation enrichment of 0.435. In the case of RAYRHYLLKQK [SCN2A_Y1919_R1918H], the phosphorylation enrichment is reported as 0.632. With EFKKHYGFSLF [ANXA3_Y295_YF] the phosphorylation enrichment was 0.413. With PLQNTYNYNVL [SLC4A1_Y553_K551N] the phosphorylation enrichment was 0.65. Work on NFCPGYNNFFN [USH2A_Y467_R464C_YF] yielded a phosphorylation enrichment of 0.434. Sequence FRNSLYAPDFS [FAM92A_Y226_YF] has a phosphorylation enrichment of 1.02. Sequence KDQGGYTMHQD [MAPT_Y29] has a phosphorylation enrichment of 0.404. KSSDVYVSYDC [SORL1_Y136_Y141C] was tested, and the phosphorylation enrichment was 4.79. FSKDIYKRVTG [PANK2_Y405_N404I_YF] gave a phosphorylation enrichment of 0.444. In the case of AEEPIYIIVPA [BMXtide_2014], the phosphorylation enrichment is reported as 10.1. FCGFSYDDIPD [TMEM230_Y112_R108C_YF] showed a phosphorylation enrichment of 0.481. Sequence FQLPFYNMVPS [BMPR1A_Y458_YF] has a phosphorylation enrichment of 1.05. For FETSHYLASPD [CTNND2_Y1217_P1218L_YF], the phosphorylation enrichment was 0.557. Sequence VKYGAYINDFK [GLB1_Y488_N484K] has a phosphorylation enrichment of 0.568. SLEKSYKLPDG [ACTA1_Y242_E243K] showed a phosphorylation enrichment of 0.397. In the case of LKYAIYFEARE [LAMA2_Y1258], the phosphorylation enrichment is reported as 1.21. For DVELLYPVKEK [EPHX1_Y283], the phosphorylation enrichment was 0.404. In the case of AFEQQYSPIPK [NOX1_Y373_R378K], the phosphorylation enrichment is reported as 0.514. IFRAAYFGVFD [SLC25A4_Y191_YF] gave a phosphorylation enrichment of 0.497. Sequence RRNEIYEIKVD [LGR5_Y387_H383R] has a phosphorylation enrichment of 5.59. Sequence LSVEIHDRREY [ITGB7_Y753_Y753H] has a phosphorylation enrichment of 0.336. For RNFVRYVQGLK [VWF_Y1400], the phosphorylation enrichment was 0.511. SHLSAYPALEG [CD5_Y465] was tested, and the phosphorylation enrichment was 0.375. LLRLAYLADIF [ZBED5_Y476] was tested, and the phosphorylation enrichment was 0.457. SVVVPYGPPEV [TP53_Y220_E221G] was tested, and the phosphorylation enrichment was 0.46. Sequence CTTIHYTYMCN [TP53_Y234_N235T] has a phosphorylation enrichment of 0.496.
